Experimental data from patent US20040259165A1 (published 2004).

Molecular target: T1, DsRed fused to the Gal4 DNA binding domain (pGBT9) (Discosoma species)
T1 construct: range 1-147; also called DsRed-prey
Assay: yeast two hybrid in HF7C (HIS3 and LacZ reporters)
Method: Yeast two hybrid assays were also performed. […] Alternatively, the yeast were grown on filters placed on plates lacking tryptophan and leucine to select for the bait and prey plasmids. After overnight growth, the filters were removed from the plates, frozen in liquid nitrogen, thawed, and incubated in X-gal overnight at 30° C. and two days at 4° C. to test for β-galactosidase activity (assayed by blue color development).

B1: DsRed fused to the Gal4 activation domain (pGAD GH) (other)
chain: ANFNQSGNIADSSLSFTFTNSSNGPNLITTQTNSQALSQPIASSNVHDNFMNNEITASKIDDGNNSKPLSPGWTDQTAYNAFGITTGMFNTTTMDDVYNYLFDDEDTPPNPKKEMRSSKNVIKEFMRFKVRMEGTVNGHEFEIEGEGEGRPYEGHNTVKLKVTKGGPLPFAWDILSPQFQYGSKVYVKHPADIPDYKKLSFPEGFKWERVMNFEDGGVVTVTQDSSLQDGCFIYKVKFIGVNFPSDGPVMQKKTMGWEASTERLYPRDGVLKGEIHKALKLKDGGHYLVEFKSIYMAKKPVQLPGYYYVDSKLDITSHNEDYTIVEQYERTEGRHHLFL
notes: range 768-881; also called DsRed-bait
B1: binds.
